Reference: PMC11947611, “Functional and structural characterization of Staphylococcus aureus N‐acetylglucosamine 1‐phosphate uridyltransferase (GlmU) reveals a redox‐sensitive acetyltransferase activity” (Protein Science : A Publication of the Protein Society, 2025)

Target: the molecule itself
Assay: crystal structure; cocrystals of WT SaGlmU with AcCoA and citrate (PDB 9DQF) and with UTP, CoA and Glc 1-P (PDB 9DR4); reducing conditions, 0.5 mM DTT; 200 mM lithium citrate tribasic tetrahydrate, 15-20% PEG 3350; one monomer in the asymmetric unit, trimer assembly

B1: Staphylococcus aureus N-acetylglucosamine 1-phosphate uridyltransferase (GlmU), wild type (enzyme, Staphylococcus aureus NCTC 8325)
chain: MRRHAIILAAGKGTRMKSKKYKVLHEVAGKPMVEHVLESVKGSGVDQVVTIVGHGAESVKGHLGERSLYSFQEEQLGTAHAVQMAKSHLEDKEGTTIVVCGDTPLITKETLVTLIAHHEDANAQATVLSASIQQPYGYGRIVRNASGRLERIVEEKDATQAEKDINEISSGIFAFNNKTLFEKLTQVKNDNAQGEYYLPDVLSLILNDGGIVEVYRTNDVEEIMGVNDRVMLSQAEKAMQRRTNHYHMLNGVTIIDPDSTYIGPDVTIGSDTVIEPGVRINGRTEIGEDVVIGQYSEINNSTIENGACIQQSVVNDASVGANTKVGPFAQLRPGAQLGADVKVGNFVEIKKADLKDGAKVSHLSYIGDAVIGERTNIGCGTITVNYDGENKFKTIVGKDSFVGCNVNLVAPVTIGDDVLVAAGSTITDDVPNDSLAVARARQTTKEGYRK
notes: GlmU of Staphylococcus aureus NCTC 8325; the glmU gene was amplified by PCR from genomic DNA; the domains described in the structure span Res. 1-228 (uridyltransferase), 229-251 (linker) and 252-450 (acetyltransferase); Plasmid 6xHis-SaGlmU-pET-16b (NcoI/BamHI); No removal of the tag is described; By intact mass the N-terminal methionine is removed; also called SaGlmU; WT SaGlmU
stoichiometry N: 3
